This is an account of results in patent publication US20250129140A1, “ANTI-HCMV ANTIBODIES AND ANTIGEN-BINDING FRAGMENTS THEREOF” (ICAHN SCHOOL OF MEDICINE AT MOUNT SINAI, priority 2021, published 2025).

The subject of experiment [1] is HCMV. The experiment is described as follows: Virus neutralization, summary statements across cell types and strains. Format: cell-based, Human cytomegalovirus. The settings on record: MRC5; TB40/E, AD169R, TR, Towne.
Protocol: AD169R^BADrUL131, TB40E, TR, or Towne was pre-incubated with monoclonal antibodies (starting dilution of 100 μg/mL antibody) was diluted using 5 fold dilutions to achieve a final range of 50-0.016 μg/mL antibody after addition to 25 μL of media containing virus; final MOI 0.2) and incubated at 4° C. for 1 hr before the inoculum was added to the appropriate cell types (ARPE-19, HTR-svNeo, MRC5, or NHDF cells at 10,000 cells per well) for 2 hrs at 37° C., 5% CO2. Following infection, the inoculum was removed and replaced with 100 μL complete DMEM/F-12 media before an overnight incubation at 37° C., 5% CO2.
Cells were fixed using 4% paraformaldehyde (PFA) for 20 minutes at room temp. Cells were then permeabilized using 0.3% Triton X-100 (Thermo Fisher, #HFH10) in PBS and stained with an affinity-purified, polyclonal rabbit anti-IE1-1/2 (0.7 ng/ml) primary and an anti-rabbit Alexa Fluor 647 (1:1000) secondary. To quantify total cells per well, Hoechst (Molecular Probes, #H3570) was diluted 1:100,000 in PBS and incubated with cells for 20 minutes at room temp. Virus neutralization was quantified using a Celigo cytometer (Nexelcom Bioscience). Percent infection was calculated using ((#IE1-1+)/(#Hoechst+))*100 events per well and normalized to the percent infection when an irrelevant, non-neutralizing, or no antibody was used.
The student's unpaired, two tailed t tests were performed using the GraphPad Prism software (La Jolla, CA). An asterisk identifies statistical significance of P<0.05 or less.
Experiment [2] concerns recombinant HCMV pentamer (strain VR1814) consisting of gH, gL, UL128, UL130 and UL131A. In words: Biolayer interferometry (Octet RED) KD determination. The class given is binding, Human cytomegalovirus. The procedure:
Biolayer interferometry assays were performed using the Octet RED instrument (ForteBio, Inc.) to determine the association (kon) and dissociation (kdis) constants for each antibody. Purified monoclonal antibody was loaded onto the anti-mouse Fc IgG capture (AMC) biosensors using 5-fold dilutions (50-0.016 μg/mL in PBS) for 10 minutes. To determine the kon, the sensors were exposed to the recombinant HCMV pentamer (strain VR1814) consisting of gH, gL, UL128, UL130 and UL131A (Native Antigen, CMV-PENT-100) at a constant concentration of 100 μg/mL in PBS for 3 minutes. To determine the kdis, dissociation was measured over the course of 3 minutes while the sensors were in PBS buffer. KD values were calculated as a ratio of […].
To examine this further, 293 Expi cells were transfected with wildtype gH, wildtype gL, cotransfected with gH and gL (gH+gL), transfected with a single plasmid expressing both gH and gL (gH/gL) or co-transfected a variety of gH mutants and gL. Three days post transfection the cells were harvested and stained with unlabeled primary at 0.5 μg/mL using the antibodies indicated. Transfection efficiency was determined by measuring GFP expression on day 3 and binding was determined by percent Alexa Fluor 647 positive cells using a conjugated secondary. […] The binding profile for 1G9 is most similar to 10F8. Although the ratios of gH, gL and gO plasmid were 1:1:1 it is not certain how efficiently the trimer was assembled following transfection. […] To discern minute differences in antibody binding biolayer interferometry was used, immobilizing each of the purified monoclonal antibodies (50-0.016 μg/mL) onto anti-mouse IgG Fc capture (AMC) biosensors and exposing the sensors to recombinant pentamer (100 μg/mL).
Background: Biolayer interferometry detects binding as a change in optical thickness at a sensor tip.

The test system of experiment [3] is TB40/E UL32-eGFP virus. The experiment is described as follows: Virus attachment assay on ARPE-19 cells. The class given is cell-based, Human cytomegalovirus. To be noted: 10 μg/mL, 0 or 120 minutes. The procedure: ARPE-19 cells were plated in glass bottom 12 well plates the day before infection. […] Infection occurred at 37° C. for 0-2 hrs before cells were washed using a citrate wash buffer (pH 3.2) for two minutes at RT. Cells were then washed with PBS and fixed in 4% PFA for 20 minutes at RT before being stained with Hoechst. Plates were read using a Cytation 3 Cell Imaging Multi-Mode Reader (BioTek, Winooski, VT) and images were acquired using brightfield and the 405 and 488 nm lasers.
To visualize HCMV virion attachment and entry, a recombinant HCMV strain was used that expresses eGFP fused to the C terminus of the tegument protein pUL32. The tegument protein is tightly associated with the capsid and allows for visualization of virus entry by immunofluorescence. […] Cells were incubated with the virus/antibody for either 0 or 120 minutes before being washed with citrate buffer (pH 3.2) for two minutes and fixed with PFA.

The test system of experiment [4] is HCMV AD169R. The experiment is described as follows: FFU assay in ARPE-19 cells in combination with ganciclovir. The class given is cell-based, Human cytomegalovirus. To be noted: combined with ganciclovir (2.5 μM); antibody 10 μg/mL; Day 12. The procedure: Relative number of plaques present 12 dpi in ARPE-19 cells infected with AD169R. Infection was performed in the presence of antibody at three different concentrations +/−ganciclovir (2.5 μM). On day 12 post infection GFP images were taken and the plaque number was calculated relative to virus alone controls on each plate. M2E10 and CytoGam® were used as negative and positive controls respectively. Each condition was done in triplicate and 10,000 μm^2 was used as a cutoff for plaque area.
ARPE-19 or NHDF cells were plates at 50,000 cells per well in a 24 well and infected the following day. TB40/E (MOI 0.01) and AD169RBAD^rUL131 (MOI 0.1 & 0.01) was incubated with either 10 μg/mL or 0.5 μg/mL of antibody one hour prior to addition to cells. Following a 2 hr incubation at 37° C., 5% CO2 the inoculum was removed, and cells were overlaid with 1% low melt temperature sea agarose overlay. The overlay was allowed to solidify at room temp and then 500 μL of media was added before cells were put back into the incubator. […]
To test efficacy of the gH antibodies in combination with ganciclovir, the FFU assay was performed in ARPE-19 cells. […] M2E10 and CytoGam® were used as negative and positive controls respectively and the relative number of plaques was calculated based on cells which received virus alone without any antibody (black bar for each graph). […]

In experiment [5] the test system is HCMV AD169R. In words: Neutralization by fully human versus chimeric antibody versions. Format: cell-based, Human cytomegalovirus. To be noted: fully human (hu) version, human IgG1 Fc. The procedure: Increasing concentrations of monoclonal antibodies (0.016-50 μg/mL) were incubated with AD169R (MOI 0.2) to assess neutralizing capacity. Percent infection was quantified using GFP expression at 18 hpi and normalized based on infection with virus alone (no antibody). CMV hyperimmune globulin (CytoGam®) was used as a control (trace on the upper right in FIGS. 8A, 8B, 8C, and 8D). FIG. 8A. […] FIG. 8B. Fully human (hu, comprising human variable and human constant regions) and chimeric (ms, comprising human variable and murine constant regions) versions of 9A12. FIG. 8C. Fully human (hu, comprising human variable and human constant regions) and chimeric (ms, comprising human variable and murine constant regions) versions of 13G1. FIG. 8D. Fully human (hu, comprising human variable and human constant regions) and chimeric (ms, comprising human variable and murine constant regions) versions of 14E1.
For this, the mouse Fc region of these mAbs was replaced with the human IgG1 Fc region.

B1: 15G11: anti-HCMV gH/gL monoclonal antibody, fusion 1; VH SEQ ID NO:52, VL SEQ ID NO:53; chimeric and fully human IgG1 versions (antibody, V domains shown)
VH: QVQLQESGPGLVKPSQTLSLTCTVSGGSISSGYYYWNWIRQHPGKGLECIGYIYYSGTTYYNPSLKSRLFISVDTSKNQFSLKLRSVTAADTAVYYCARGGLGAFDIWGQGTMVTVSS
VL: EIVLTQSPGTLSLSPGERATLSCRASQSVSSSYLAWYQQKPGQAPRLLIYGASSRAPGIPDRFSGTGSGTDFTLTISRLEPEDFAVYYCQQYGISPLTFGGGTKVEIK
modifications: IgG1 constant regions
notes: anti-HCMV gH/gL monoclonal antibody, fusion 1; chimeric and fully human IgG1 versions
B1: the “neutralization of infection across all strains” value in experiment [1] was “consistently neutralized infection”. Moreover, the “kdis” value in experiment [2] (dissociation 3 minutes in PBS) stood at 8.69e-05 s⁻¹. Besides, the “rank of binding constant within the panel” value in experiment [2] (recombinant pentamer) is listed as “strongest”. In addition, the “number of virions bound to the cells” value in experiment [3] is “did not significantly change”. For the same molecule, the reduction in plaques in experiment [4] is 95%. For the same molecule, the “IC50 of infection, version with human constant regions” value in experiment [5] worked out at 0.37 µg/mL.
